Target: annexin V endogenous in CHO-K1 cells (Homo sapiens (Human)) (UniProt P08758)
Experiment: co-immunoprecipitation from CHO cells stimulated with 10 nM PMA, FIG. 2

fold increase in the amount of complex after PMA stimulation (against before stimulation): 4 fold
Substance: δ-PKC endogenous in CHO-K1 cells (from UniProt P28867 1-674) (enzyme)
